Values quoted from earlier work in PMC4932920.

Assays:
His89 [1] = molecular target: T1, His89 (UniProt position 90, SDLHAHKLRVD); assay: other (H/D exchange of individual histidine residues)
His50 [2] = molecular target: T2, His50 (UniProt position 51, HFDLSHGSAQV); assay: as above
His72 [3] = molecular target: T3, His72 (UniProt position 73, TNAVAHVDDMP); assay: as above
His112 [4] = molecular target: T4, His112 (UniProt position 113, VTLAAHLPAEF); assay: as above
His20 [5] = molecular target: T5, His20 (UniProt position 21, GKVGAHAGEYG); assay: as above
His89 [6] = molecular target: T1, His89; assay: NMR
His50 [7] = molecular target: T2, His50; assay: NMR
His72 [8] = molecular target: T3, His72; assay: NMR
His112 [9] = molecular target: T4, His112; assay: NMR
His20 [10] = molecular target: T5, His20; assay: NMR
His103 = His103 (UniProt position 104, FKLLSHCLLVT); assay: other (histidine H/D exchange)
His77 [11] = molecular target: T6, His77 (UniProt position 78, SDGLAHLDNLK); assay: other (H/D exchange of individual histidine residues)
His146 [12] = molecular target: T7, His146 (UniProt position 147, LAHKYH-----); assay: as above
His97 [13] = molecular target: T8, His97 (UniProt position 98, HCDKLHVDPEN); assay: as above
His143 [14] = molecular target: T9, His143 (UniProt position 144, ANALAHKYH--); assay: as above
His77 [15] = molecular target: T6, His77; assay: NMR
His146 [16] = molecular target: T7, His146; assay: NMR
His117 = His117 (UniProt position 118, CVLAHHFGKEF); assay: NMR
His97 [17] = molecular target: T8, His97; assay: NMR
His143 [18] = molecular target: T9, His143; assay: NMR
[19] = carbonmonoxy (CO-liganded) hemoglobin, R state

For “Hemoglobin A (adult human hemoglobin), alpha chain (Homo sapiens)”, the pKa (His89 [1]; [19]) is listed as 5.6, the pKa (His89 [1]; deoxy hemoglobin, T state) is listed as 7.2 and the pKa (His50 [2]; [19]) is listed as 7.1. The pKa (His50 [2]; deoxy hemoglobin, T state) was 7.2, the pKa (His72 [3]; [19]) was 7.1 and the pKa (His72 [3]; deoxy hemoglobin, T state) was 7.3. The pKa (His112 [4]; [19]) was 8.1, the pKa (His112 [4]; deoxy hemoglobin, T state) was 8.1 and the pKa (His20 [5]; [19]) was 7.0. For the same substance, the pKa (His20 [5]; deoxy hemoglobin, T state) was 7.6, the pKa (His89 [6]; [19]) was 6.25 and the pKa (His89 [6]; deoxy hemoglobin, T state) was 6.80. The pKa (His50 [7]; [19]) was 6.90, the pKa (His50 [7]; deoxy hemoglobin, T state) was 7.14 and the pKa (His72 [8]; [19]) was 7.27. The pKa (His72 [8]; deoxy hemoglobin, T state) was 7.47, the pKa (His112 [9]; [19]) was 7.53 and the pKa (His112 [9]; deoxy hemoglobin, T state) was 7.49. For the same substance, the pKa (His20 [10]; [19]) was 7.08 and the pKa (His20 [10]; deoxy hemoglobin, T state) was 7.02.
For “Hemoglobin A (adult human hemoglobin), alpha chain residue titrated (Homo sapiens)”, the pKa (His103; [19]) is given as 7.1 and the pKa (His103; deoxy hemoglobin, T state) is given as 7.1.
In the case of “Hemoglobin A (adult human hemoglobin), beta chain (Homo sapiens)”, the pKa (His77 [11]; [19]) is given as 7.8, the pKa (His77 [11]; deoxy hemoglobin, T state) is given as 7.8 and the pKa (His146 [12]; [19]) is given as 7.0. The pKa (His146 [12]; deoxy hemoglobin, T state) was 8.1, the pKa (His97 [13]; [19]) was 6.4 and the pKa (His97 [13]; deoxy hemoglobin, T state) was 6.4. For the same substance, the pKa (His143 [14]; [19]) was 6.1, the pKa (His143 [14]; deoxy hemoglobin, T state) was 5.6 and the pKa (His77 [15]; [19]) was 7.79. The pKa (His77 [15]; deoxy hemoglobin, T state) was 7.47, the pKa (His146 [16]; [19]) was 6.42 and the pKa (His146 [16]; deoxy hemoglobin, T state) was 7.93. The pKa (His117; [19]) was 6.39, the pKa (His117; deoxy hemoglobin, T state) was 6.43 and the pKa (His97 [17]; [19]) was 7.75. The pKa (His97 [17]; deoxy hemoglobin, T state) was 8.01, the pKa (His143 [18]; [19]) was 5.57 and the pKa (His143 [18]; deoxy hemoglobin, T state) was 4.70.
